Among the data in patent US20170037111A1, “Novel peptides and combination of peptides for use in immunotherapy against ovarian cancer and other cancers” (immatics biotechnologies GmbH, priority 2015, published 2017) are Peptide exchange values, retold here.

The test addresses HLA-A*02:01 (Homo sapiens, UniProt P04439, D140Y/D185E/D98H/E176V/E277Q/G131W/G231S/I119V/I121R/I166T/I218V/L300P/L318F/N151K/N90K/P208A/P217A/Q86G/Q94H/R138H/R169H/T345S). Kind of test: MHC binding assay (UV-ligand exchange, β2m ELISA, peptide exchange yield). The conditions noted are these: MHC class I binding score; binding to HLA-A*02:01 ranged by peptide exchange yield (UV-ligand exchange, β2m ELISA). Summed up: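 Binding is expressed as peptide exchange yield: stabilized MHC complexes were quantified by β2m ELISA, with a 450 nm TMB read-out on streptavidin-coated plates. Complexes came from UV-ligand exchange, where UV irradiation cleaves a photolabile peptide so the candidate peptide can load.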
(In general: In an ELISA, binding on a coated surface is turned into a signal by an enzyme label.)
With “222 (NLIENVQRL; listed as Homo sapiens) [compound 222]”, the Peptide exchange entry is recorded as “″++″ (≧20% = ++)”. To “223 (ALLENIALYL; listed as Homo sapiens) [compound 223]” belongs “″+++″ (≧50% = +++)”; to “224 (TLIDAQWVL; listed as Homo sapiens) [compound 224]”, “″+++″ (≧50% = +++)”; to “225 (SLLKVLPAL; listed as Homo sapiens) [compound 225]”, “″+++″ (≧50% = +++)”.

Take “226 (MLYVVPIYL; listed as Homo sapiens) [compound 226]”: the Peptide exchange result was “″++″ (≧20% = ++)”.

With “227 (ALMNTLLYL; listed as Homo sapiens) [compound 227]”, the Peptide exchange entry is on record as “″++″ (≧20% = ++)”. To “228 (AMQEYIAVV; listed as Homo sapiens) [compound 228]” belongs “″++″ (≧20% = ++)”. To “229 (RLPGPLGTV; listed as Homo sapiens) [compound 229]” belongs “″++″ (≧20% = ++)”; to “230 (ILVDWLVEV; listed as Homo sapiens) [compound 230]”, “″+″ (≧10% = +)”.

In the case of “231 (FLSPQQPPLLL; listed as Homo sapiens) [compound 231]”, the Peptide exchange entry is “″++″ (≧20% = ++)”. Next, “232 (ALLEAQDVELYL; listed as Homo sapiens) [compound 232]”: “″++″ (≧20% = ++)”; “233 (VLSETLYEL; listed as Homo sapiens) [compound 233]”: “″++″ (≧20% = ++)”.

On to “234 (ALMEDTGRQML; listed as Homo sapiens) [compound 234]”, for which the Peptide exchange result was “″++″ (≧20% = ++)”. To “235 (YLNDLHEVLL; listed as Homo sapiens) [compound 235]” belongs “″++++″ (≧75% = ++++)”; to “236 (GLLEAKVSL; listed as Homo sapiens) [compound 236]”, “″+++″ (≧50% = +++)”; to “237 (ALLEASGTLLL; listed as Homo sapiens) [compound 237]”, “″++++″ (≧75% = ++++)”.

As to “238 (YLISFQTHI; listed as Homo sapiens) [compound 238]”, the Peptide exchange result is listed as “″+++″ (≧50% = +++)”. On to “239 (AAFAGKLLSV; listed as Homo sapiens) [compound 239]”, for which the Peptide exchange entry was “″+++″ (≧50% = +++)”. Next, “240 (ILLEQAFYL; listed as Homo sapiens) [compound 240]”: “″+++″ (≧50% = +++)”.

As to “241 (SLVEVNPAYSV; listed as Homo sapiens) [compound 241]”, the Peptide exchange entry was “″+++″ (≧50% = +++)”. Next, “243 (LLLNELPSV; listed as Homo sapiens) [compound 243]”: “″+++″ (≧50% = +++)”; “244 (SLFGGTEITI; listed as Homo sapiens) [compound 244]”: “″+++″ (≧50% = +++)”.

As for “245 (SMIDDLLGV; listed as Homo sapiens) [compound 245]”, the Peptide exchange entry is reported as “″+++″ (≧50% = +++)”. To “246 (LLWEVVSQL; listed as Homo sapiens) [compound 246]” belongs “″+++″ (≧50% = +++)”; to “248 (FLFPNQYVDV; listed as Homo sapiens) [compound 248]”, “″+++″ (≧50% = +++)”. To “249 (LLDGFLVNV; listed as Homo sapiens) [compound 249]” belongs “″+++″ (≧50% = +++)”; to “250 (ALSEEGLLVYL; listed as Homo sapiens) [compound 250]”, “″+++″ (≧50% = +++)”. In the case of “251 (ALYTGFSILV; listed as Homo sapiens) [compound 251]”, the Peptide exchange result is given as “″++″ (≧20% = ++)”.

As to “252 (LLIGTDVSL; listed as Homo sapiens) [compound 252]”, the Peptide exchange result is reported as “″+++″ (≧50% = +++)”. To “253 (GLDAATATV; listed as Homo sapiens) [compound 253]” belongs “″++″ (≧20% = ++)”; to “254 (TLLAFIMEL; listed as Homo sapiens) [compound 254]”, “″+++″ (≧50% = +++)”. Regarding “255 (VLASYNLTV; listed as Homo sapiens) [compound 255]”, the Peptide exchange result is reported as “″+++″ (≧50% = +++)”. Turning to “256 (FLPPEHTIVYI; listed as Homo sapiens) [compound 256]”, the Peptide exchange entry is “″+++″ (≧50% = +++)”. Take “257 (SIFSAFLSV; listed as Homo sapiens) [compound 257]”: the Peptide exchange entry was “″+++″ (≧50% = +++)”.

In the case of “258 (ELAERVPAI; listed as Homo sapiens) [compound 258]”, the Peptide exchange result is listed as “″++″ (≧20% = ++)”. To “261 (YVLEFLEEI; listed as Homo sapiens) [compound 261]” belongs “″++″ (≧20% = ++)”; to “262 (LLWGDLIWL; listed as Homo sapiens) [compound 262]”, “″+++″ (≧50% = +++)”. Next, “263 (LLVSNLDFGV; listed as Homo sapiens) [compound 263]”: “″+++″ (≧50% = +++)”; “264 (SLQEQLHSV; listed as Homo sapiens) [compound 264]”: “″+++″ (≧50% = +++)”.

With “265 (LLFGGTKTV; listed as Homo sapiens) [compound 265]”, the Peptide exchange result was “″++″ (≧20% = ++)”. To “266 (KITDTLIHL; listed as Homo sapiens) [compound 266]” belongs “″+++″ (≧50% = +++)”; to “267 (ALQDFLLSV; listed as Homo sapiens) [compound 267]”, “″+++″ (≧50% = +++)”; to “269 (RVLEVGALQAV; listed as Homo sapiens) [compound 269]”, “″++″ (≧20% = ++)”. To “270 (LLLDEEGTFSL; listed as Homo sapiens) [compound 270]” belongs “″++″ (≧20% = ++)”; to “271 (LVYPLELYPA; listed as Homo sapiens) [compound 271]”, “″+++″ (≧50% = +++)”; to “272 (ALGNTVPAV; listed as Homo sapiens) [compound 272]”, “″+++″ (≧50% = +++)”.

With “273 (NLFQSVREV; listed as Homo sapiens) [compound 273]”, the Peptide exchange entry is listed as “″++″ (≧20% = ++)”. As for “274 (SLLFSLFEA; listed as Homo sapiens) [compound 274]”, the Peptide exchange entry was “″++″ (≧20% = ++)”. In the case of “275 (YLVYILNEL; listed as Homo sapiens) [compound 275]”, the Peptide exchange entry is reported as “″++″ (≧20% = ++)”.

With “276 (ALFTFSPLTV; listed as Homo sapiens) [compound 276]”, the Peptide exchange entry is “″+++″ (≧50% = +++)”. Next, “277 (LLPPLESLATV; listed as Homo sapiens) [compound 277]”: “″++″ (≧20% = ++)”.

Regarding “278 (QLLDVVLTI; listed as Homo sapiens) [compound 278]”, the Peptide exchange result is “″++″ (≧20% = ++)”.

As to “279 (ALWGGTQPLL; listed as Homo sapiens) [compound 279]”, the Peptide exchange entry is given as “″++″ (≧20% = ++)”.
